The record followed here is publication PMC12609122.

Assay [1] deals with Tha4 E10A P56CP58C (Pisum sativum). In words: cross-linking; radiolabelled double-Cys Tha4 integrated into NEM-treated pea thylakoids; 0.25 mM BMOE, 10 min; four conditions: with or without precursor (V-20F)tOE17 (1.5 uM), with PMF (light, 15 °C) or without (dark, on ice; 0.5 uM nigericin and 1 uM valinomycin); SDS-PAGE and fluorography; result as told over the conditions.
In assay [2] the target is Tha4 E10A A18CL20C (Pisum sativum). As to the kind of experiment: cross-linking; as a1, the sample with the functional precursor (V-20F)tOE17 and with PMF (light).
In assay [3] the target is Tha4 E10D P56CP58C (Pisum sativum). In words: cross-linking; radiolabelled double-Cys Tha4 integrated into NEM-treated pea thylakoids; 0.25 mM BMOE, 10 min; four conditions: with or without precursor (V-20F)tOE17 (1.5 uM), with PMF (light, 15 °C) or without (dark, on ice; 0.5 uM nigericin and 1 uM valinomycin); SDS-PAGE and fluorography; result as told over the conditions.

Assay [4] concerns the target Tha4 E10D V8CP9C (Pisum sativum). The assay is described as above.
Assay [5] concerns the target Tha4 E10A V8CP9C (Pisum sativum). The assay is described as above.
Assay [6] deals with Tha4 A65CT78C (E10 background) (Pisum sativum). Described as above.
Assay [7] concerns the target Tha4 E10A F41CA45C (Pisum sativum). Described as above.
The target in assay [8] is Tha4 V13CI14C (E10 background) (Pisum sativum). The description is as above.
Assay [9] addresses Tha4 V8CP9C (E10 background) (Pisum sativum). As to the kind of experiment: cross-linking; as a1, the samples with the functional precursor (V-20F)tOE17 (1.5 uM), with or without PMF.
Assay [10] has the same target. As to the kind of experiment: cross-linking; radiolabelled double-Cys Tha4 integrated into NEM-treated pea thylakoids; 0.25 mM BMOE, 10 min; four conditions: with or without precursor (V-20F)tOE17 (1.5 uM), with PMF (light, 15 °C) or without (dark, on ice; 0.5 uM nigericin and 1 uM valinomycin); SDS-PAGE and fluorography; result as told over the conditions.
For assay [11], the target named is Tha4 P56CP58C (E10 background) (Pisum sativum). The assay is described as above.
Assay [12] has as its target Tha4 V21CG23C (E10 background) (Pisum sativum). The description is as above.
Assay [13] addresses Tha4 E10D K39CQ43C (Pisum sativum). The assay is described as above.
The target in assay [14] is Tha4 E10A V21CG23C (Pisum sativum). The assay is described as above.

Substance Tha4 E10A P56CP58C (natural protein) came in with a stoichiometry N in assay [1] below 4.

Consider Tha4 E10A A18CL20C (natural protein), for which the stoichiometry N in assay [2] is below 4.

In the case of Tha4 E10D P56CP58C (natural protein), the stoichiometry N in assay [3] was below 4.

Regarding Tha4 E10D V8CP9C (natural protein), in assay [4], the stoichiometry N was below 6.

Tha4 E10A V8CP9C (natural protein) returned a stoichiometry N in [5] below 6.

In assay [6], “Tha4 A65CT78C (E10 background) (natural protein)” displayed a stoichiometry N below 5.

In assay [7], Tha4 E10A F41CA45C (natural protein) had a stoichiometry N below 6.

As for “Tha4 V13CI14C (E10 background) (natural protein)”, the stoichiometry N in [8] was below 6.

On to “Tha4 V8CP9C (E10 background) (natural protein)”, for which the stoichiometry N in [9] was below 6; in assay [10], below 4.

As to “Tha4 P56CP58C (E10 background) (natural protein)”, the stoichiometry N in assay [11] was below 4.

In [12], “Tha4 V21CG23C (E10 background) (natural protein)” came in with a bands in the oligomer ladder below 6 bands.

In [13], Tha4 E10D K39CQ43C (natural protein) returned a stoichiometry N below 4.

In turn, Tha4 E10A V21CG23C (natural protein) came in with a stoichiometry N in assay [14] below 10.
